Reference: the supplement of paper PMC10567573

B1: HSP90AB1 (parent)
chain: EADKNDKAVKDLVVLLFETALLSS
B2: DYRK1B (parent)
chain: RFQDLVLRMLEYEPAARISPLGAL

Variants of: B1
Test: protein stability index of a GFP-peptide fusion (GPS, HEK-293T) (PSI 1-6); higher = more stable
Settings: c terminus: a fixed tail appended
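Note: lentivirally expressed fusions sorted by FACS into six bins by GFP to DsRed ratio, PSI derived from sequencing read proportions per bin multiplied by bin number.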

Protein stability index of substitutions, site by site:
E18: A 2.2 | L 2.61 | V 4.33 | G 4.31 | M 3 | N 1.7 | F 3.16 | R 2.21 | W 2.79 | D 1.33 | I 3.81 | T 2.01 | P 2.73 | H 2.07 | S 2.16 | K 2.42 | C 1.82 | Q 1.77
S23: N 1.96 | D 2.26 | A 2.21 | P 1.96 | I 3.41 | K 1.91 | T 2.15 | M 2.65 | Y 1.63 | F 1.68 | R 2.54 | V 2.41 | C 2.22 | G 1.95 | H 2.26 | Q 1.64 | L 3.33 | W 2.27
L12: K 3.6 | A 2.52 | Q 3.71 | S 3.49 | H 3.27 | I 2.46 | F 1.72 | D 4.21 | M 2.2 | E 3.99 | C 2.35 | T 2.73 | R 3.44 | P 3.2 | Y 2.16 | N 3.89 | V 2.1 | G 3.5
F17: V 1.92 | S 3.89 | G 4.26 | T 3.67 | I 1.84 | K 3.76 | W 2.26 | D 4.65 | E 4.22 | N 3.94 | H 3.13 | L 1.76 | M 2.1 | Q 3.82 | C 2.59 | R 3.31 | A 3.56 | Y 2.13 | P 4.3
L15: H 2.69 | D 3.61 | K 2.48 | W 3.99 | Y 2.04 | P 4.06 | N 3.62 | Q 3.06 | V 1.5 | C 2.15 | I 1.95 | R 2.64 | G 3.23 | E 3.5 | M 1.92 | S 2.77 | T 2.71 | A 2.52
V14: Q 2.33 | T 2.12 | W 1.92 | S 2.17 | F 1.98 | C 2.81 | N 2.21 | Y 1.88 | M 1.61 | D 3.03 | K 2.64 | L 1.72 | A 1.77 | P 3.93 | G 2.19 | I 2.04 | R 2.29
S24: H 1.89 | P 2.72 | E 1.93 | R 1.65 | N 2.13 | F 2.11 | Y 2.04 | C 1.4 | M 2.16 | I 1.51 | V 2.29 | W 1.75 | L 2.06 | Q 1.67 | D 1.93 | T 1.91
D11: G 2.68 | M 1.65 | F 2.86 | Y 2.79 | Q 1.97 | P 1.51 | R 3.27 | E 1.98 | V 3.05 | T 3.74 | S 1.99 | H 2.61 | W 3.06 | K 2.15 | C 3.23 | N 2.67 | I 3.6
L16: V 2.16 | W 2.2 | Q 4.37 | G 4.18 | K 3.62 | Y 2.27 | R 3.37 | F 1.69 | P 4.67 | C 3.07 | E 4.31 | T 3.63 | D 4.88 | N 4.05 | I 2.07 | S 3.94 | A 3.56 | H 3.34
V13: G 3.38 | N 3.7 | Y 2.33 | R 2.98 | P 3.78 | K 3.37 | S 3.54 | F 2.41 | Q 4.08 | H 2.58 | C 2.03 | L 2.1 | T 3.27 | A 2.41 | D 3.81 | E 3.74 | I 1.93
T19: R 1.99 | V 2.11 | L 1.98 | G 2.49 | I 2.92 | H 2.2 | E 2.71 | M 2.29 | C 2.54 | Q 1.75 | A 1.42 | Y 2.02 | K 2.2 | S 2.15 | N 2.15 | W 2.52 | F 2.57 | P 1.83 | D 2.32
L22: Q 2.29 | N 2.68 | M 1.86 | R 2.09 | W 1.64 | Y 1.5 | G 2.77 | S 2.7 | A 2.85 | H 2.18 | F 1.8 | T 2.29 | E 2.95 | D 3.01 | V 2.17
L21: M 1.86 | A 2.49 | N 3.31 | T 2.79 | D 2.57 | G 2.58 | S 2.28 | I 2.17 | R 2.11 | F 2.13 | Y 1.48 | H 2.27 | K 2.35 | P 2.88 | C 2.14 | V 1.94
A20: C 1.47 | I 2.19 | P 2.27 | M 1.97 | R 2.42 | T 1.99 | V 1.88 | Y 1.44 | L 1.44 | G 2.46 | S 2.8 | E 2.43 | W 2.07 | D 2.85 | N 2.16 | F 2.42 | Q 2.44

Variants of: B2
Test: as above
Settings: c terminus: a fixed tail appended

Protein stability index of substitutions, site by site:
L7: G 1.18 | P 2.25 | E 1.8 | R 1.58 | F 2.9 | K 1.51 | M 2.13 | S 2.05 | Q 1.69 | N 1.41 | H 1.03 | Y 1.38 | T 2.3
R1: G 1.58 | N 2.94 | F 3.52 | S 4.75 | D 1.54 | M 3.36 | P 3.11 | K 2.19 | T 2.57 | Y 2.47 | W 3 | H 2.31
F2: G 2.18 | W 1.39 | Q 3.35 | D 2.38 | Y 3.05 | T 2.42 | R 2.38 | V 3.5 | E 3.27 | M 3.25 | K 2.15 | C 2.36 | H 2.53 | P 1.76 | N 2.14
Q3: T 3.41 | R 1.19 | N 2.28 | V 4.49 | S 2.84 | H 1.95 | Y 3.44 | K 2.03 | E 2.19 | D 1.82 | I 2.91 | P 2.05
V6: K 1.51 | W 1.03 | A 2.26 | L 1.77 | N 2.78 | Y 2.18 | Q 2.12 | H 2.01 | R 2 | P 2.58 | I 2.23 | D 2.24 | S 1.91 | T 2.07 | G 1.88
D4: K 2.07 | R 2.31 | H 2.78 | N 1.91 | S 2.88 | I 1.1 | V 3.69
L5: T 1.49 | R 1.2 | G 1.4 | C 3.97 | M 3.17 | P 2.16 | D 2.71 | E 1.02 | H 1.36 | K 1.91 | A 2.01 | Y 2.06 | F 2.62 | Q 1.1 | V 2.42 | N 2.28 | W 2
